First the molecules themselves.
B1: T-cell immunoreceptor with Ig and ITIM domains (Homo sapiens), Q495A1 (parent)
chain: MRWCLLLIWAQGLRQAPLASGMMTGTIETTGNISAEKGGSIILQCHLSSTTAQVTQVNWEQQDQLLAICNADLGWHISPSFKDRVAPGPGLGLTLQSLTVNDTGEYFCIYHTYPDGTYTGRIFLEVLESSVAEHGARFQIPLLGAMAATLVVICTAVIVVVALTRKKKALRIHSVEGDLRRKSAGQEEWSPSAPSPPGSCVQAEAAPAGLCGEQRGEDCAELHDYFNVLSYRSLGNCSFFTETG

This assay covers variants of B1. The settings on record: with nect2_human NECTIN2, Q92692.
Chain of nect2_human NECTIN2, Q92692 (Q92692 whole entry): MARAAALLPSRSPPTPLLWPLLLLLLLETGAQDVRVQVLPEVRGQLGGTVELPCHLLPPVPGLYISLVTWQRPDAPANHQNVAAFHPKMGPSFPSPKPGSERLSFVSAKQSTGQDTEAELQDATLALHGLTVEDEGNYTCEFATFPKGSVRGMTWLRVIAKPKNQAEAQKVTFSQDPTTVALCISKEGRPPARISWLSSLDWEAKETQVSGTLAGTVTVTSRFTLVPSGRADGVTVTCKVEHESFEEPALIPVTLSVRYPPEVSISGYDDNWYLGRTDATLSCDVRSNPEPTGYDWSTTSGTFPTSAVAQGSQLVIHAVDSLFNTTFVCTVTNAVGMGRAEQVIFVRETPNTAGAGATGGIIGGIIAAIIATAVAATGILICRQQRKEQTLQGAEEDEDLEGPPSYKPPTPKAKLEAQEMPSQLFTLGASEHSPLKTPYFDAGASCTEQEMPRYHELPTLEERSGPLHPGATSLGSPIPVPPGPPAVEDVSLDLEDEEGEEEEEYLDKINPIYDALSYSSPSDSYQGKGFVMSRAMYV
Regarding T112A, the “effect of a mutation on the interaction” value is on record as “decreasing interaction strength”.

Consider P114A, for which the “effect of a mutation on the interaction” value is reported as “decreasing interaction strength”.

Y113A: the “effect of a mutation on the interaction” value is “decreasing interaction strength”.

For the origin of these results see IntAct's records for PubMed 27978489.
